Laboratory results from patent publication US20230303690A1 (published 2023).

T1: LAG3 Protein, Human, Recombinant (His Tag) (Sino Biological Catalog No. 16498-H08H) (human, UniProt P18627 23-450)
T1 construct: Bought protein; also called hLAG3-His; LAG3-His; not shown: His tag
T1 sequence (looked up): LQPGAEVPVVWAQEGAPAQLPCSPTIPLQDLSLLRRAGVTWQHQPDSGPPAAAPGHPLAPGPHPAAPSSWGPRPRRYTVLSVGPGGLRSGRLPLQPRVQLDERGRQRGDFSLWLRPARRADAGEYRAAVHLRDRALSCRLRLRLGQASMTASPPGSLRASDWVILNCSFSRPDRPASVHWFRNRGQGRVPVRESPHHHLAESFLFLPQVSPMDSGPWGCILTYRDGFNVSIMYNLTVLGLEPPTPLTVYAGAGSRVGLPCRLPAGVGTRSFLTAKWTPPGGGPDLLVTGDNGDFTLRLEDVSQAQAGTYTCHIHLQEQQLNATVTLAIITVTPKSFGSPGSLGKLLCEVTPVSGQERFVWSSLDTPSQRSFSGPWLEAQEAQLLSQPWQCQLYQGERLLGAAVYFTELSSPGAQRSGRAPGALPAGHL

T2: human LAG3 expressed on cells (human, UniProt P18627 23-525)
T2 sequence (looked up): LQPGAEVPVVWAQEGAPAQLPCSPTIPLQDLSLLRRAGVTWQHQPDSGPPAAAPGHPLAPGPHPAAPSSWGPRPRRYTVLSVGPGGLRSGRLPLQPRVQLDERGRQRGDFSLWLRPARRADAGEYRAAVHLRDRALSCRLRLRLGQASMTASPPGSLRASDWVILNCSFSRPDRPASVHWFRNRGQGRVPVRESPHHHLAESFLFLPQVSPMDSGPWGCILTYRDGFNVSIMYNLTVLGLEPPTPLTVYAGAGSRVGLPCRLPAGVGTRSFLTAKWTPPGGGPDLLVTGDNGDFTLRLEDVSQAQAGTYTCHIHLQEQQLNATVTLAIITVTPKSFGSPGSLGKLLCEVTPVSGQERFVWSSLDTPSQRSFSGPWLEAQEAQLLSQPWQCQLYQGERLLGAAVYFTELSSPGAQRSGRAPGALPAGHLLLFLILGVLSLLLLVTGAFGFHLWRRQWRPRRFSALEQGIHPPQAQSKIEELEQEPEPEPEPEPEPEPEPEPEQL


How the values were obtained:
[1] = molecular target: human LAG3 expressed on cells (human) (UniProt P18627); experiment: cell ELISA, 293T-LAG3 cells
[2] = molecular target: T1, LAG3 Protein, Human, Recombinant (His …); experiment: ELISA, coated hLAG3-His
Protocol: Plates were coated with 100 µL per well of Coating Solution, and then covered, and incubated overnight (12-18 hours) at 2-8° C. The wells were aspirated and washed 1 time with >200 µL of Wash buffer per well, inverted and tapped on absorbent paper to remove excess liquid. The plates were blocked with 200 µL per well with Blocking buffer (1×PBS+4% milk) for 1 hour at room temperature, aspirated, inverted, and tapped on absorbent paper to remove excess liquid. Standards and sample dilutions were prepared in Blocking buffer. 100 µL of standards (in duplicate) and samples were pipetted into designated wells. After incubation for 1 hour at room temperature with gentle continual shaking (~500 rpm), the wells were aspirate and washed 3 times with >200 µL of Wash buffer per well, inverted and tapped on absorbent paper to remove excess liquid.
The primary antibody solution was diluted with Blocking buffer. See Table 14 for recommended primary antibody dilution. 100 µL of the primary antibody solution was added into each well and incubated for 2 hours at room temperature with gentle continual shaking (~500 rpm). The wells were aspirated and washed 3 times with >200 µL of Wash buffer per well, inverted and tapped on absorbent paper to remove excess liquid. The working solution of secondary antibody was made with Blocking buffer by diluting the secondary antibody by 2,500 times. 100 µL of secondary antibody working solution was added into each well and incubated for 30 minutes at room temperature. The wells were aspirated and washed 5 times with >200 µL of Wash buffer per well, inverted and tapped on absorbent paper to remove excess liquid. 100 µL of TMB substrate solution (Biopanda, TMB-S-004) was added to each well and incubated for 30 minutes at room temperature. 100 µL of Stop solution (Solarbio, C1058) was added to each well. Absorbance at 450 nm was measured within 30 minutes of adding Stop solution. Results were calculated using a log-log or 4-parameter curve fit.

[3] = molecular target: T2, human LAG3 expressed on cells; experiment: cell-based or functional assay
[4] = molecular target: T2, human LAG3 expressed on cells; experiment: cell-based or functional assay; remark: listed apart in the source
[5] = molecular target: T1, LAG3 Protein, Human, Recombinant (His …); experiment: SPR binning on LAG3-His; competitor 1
Protocol: (§1) The chip surface was regenerated after each cycle with 25 mM NaOH followed by HBS-EP wash provided in the kit.

[6] = molecular target: T1, LAG3 Protein, Human, Recombinant (His …); experiment: SPR binning on LAG3-His; competitor 17
Protocol: as §1

[7] = molecular target: T1, LAG3 Protein, Human, Recombinant (His …); experiment: SPR binning on LAG3-His; competitor 18
Protocol: as §1

[8] = molecular target: T1, LAG3 Protein, Human, Recombinant (His …); experiment: SPR binning on LAG3-His; competitor 20
Protocol: as §1

[9] = molecular target: T1, LAG3 Protein, Human, Recombinant (His …); experiment: SPR binning on LAG3-His; competitor 21
Protocol: as §1

[10] = molecular target: T1, LAG3 Protein, Human, Recombinant (His …); experiment: SPR binning on LAG3-His; competitor 24
Protocol: as §1

[11] = molecular target: T1, LAG3 Protein, Human, Recombinant (His …); experiment: SPR binning on LAG3-His; competitor 25
Protocol: as §1

[12] = molecular target: T1, LAG3 Protein, Human, Recombinant (His …); experiment: SPR binning on LAG3-His; competitor 27
Protocol: as §1

[13] = molecular target: T1, LAG3 Protein, Human, Recombinant (His …); experiment: SPR binning on LAG3-His; competitor 37
Protocol: as §1

[14] = molecular target: T1, LAG3 Protein, Human, Recombinant (His …); experiment: SPR binning on LAG3-His; competitor 73
Protocol: as §1

[15] = molecular target: T1, LAG3 Protein, Human, Recombinant (His …); experiment: SPR binning on LAG3-His; competitor BMS
Protocol: as §1

[16] = molecular target: T1, LAG3 Protein, Human, Recombinant (His …); experiment: SPR (Biacore), sdAb captured by anti-human Fc, LAG3-His analyte
Protocol: The binding of the single domain antibodies to recombinant human LAG3 protein (rhLAG3) was examined by Biacore™ assay. […] The coating was carried out according to the manufacturer’s instructions accompanying the kit (Catalog No. BR-1008-39, GE). […] The chip surface was regenerated after each cycle with 25 mM NaOH followed by HBS-EP wash provided in the kit.

IL-2, % of BMS, at 0.005080526 ug/mL [3] [%] | IL-2, % of BMS, at 0.015241579 ug/mL [3] [%] | IL-2, % of BMS, at 0.045724737 ug/mL [3] [%] | IL-2, % of BMS, at 0.137174211 ug/mL [3] [%] | IL-2, % of BMS, at 0.411522634 ug/mL [3] [%] | IL-2, % of BMS, at 1.234567901 ug/mL [3] [%] | IL-2, % of BMS, at 3.703703704 ug/mL [3] [%] | IL-2, % of BMS, at 11.11111111 ug/mL [3] [%] | IL-2, % of BMS, at 33.33333333 ug/mL [3] [%] | IL-2, % of BMS, at 100 ug/mL [3] [%] | EC50 for IL-2 rescue, hLAG3 Jurkat T system [4] [nM] | Efficacy (IL-2 production, BMS = 100%) [4] [%] | RU [5] [RU] | RU [6] [RU] | RU [7] [RU] | RU [8] [RU] | RU [9] [RU] | RU [10] [RU] | RU [11] [RU] | RU [12] [RU] | Binder | other results
 |  |  |  |  |  |  |  |  |  |  |  |  |  |  |  |  |  |  |  | sdAb No. 25-B5 (VHH, Humanized sdAb No. 25; not shown: Fc part implied by anti-human IgG1 Fc detection) VHH: QVQLVESGGGLVKPGGSLRLSCAASGSIESFSFMGWYRQAPGKQREWVAGFTGAASLSFSTYTDAVKGRFTISRDNAKNSLYLQMNSLRAEDTAVYYCNVDPWSQSWPGRYWGQGTTVTVSS | OD450 at 0.122 nM [1]: 0.086; OD450 at 0.366 nM [1]: 0.113; OD450 at 1.097 nM [1]: 0.124; OD450 at 3.292 nM [1]: 0.196; OD450 at 9.877 nM [1]: 0.21; OD450 at 29.63 nM [1]: 0.254; OD450 at 88.89 nM [1]: 0.311; OD450 at 266.67 nM [1]: 0.608; EC50 [2]: 452 nM; OD450 at 0.061 nM [2]: 0.036; OD450 at 0.1829 nM [2]: 0.04; OD450 at 0.5487 nM [2]: 0.038; OD450 at 1.6461 nM [2]: 0.048; OD450 at 4.9383 nM [2]: 0.062; OD450 at 14.815 nM [2]: 0.084; OD450 at 44.445 nM [2]: 0.114; OD450 at 133.335 nM [2]: 0.163
 |  |  |  |  |  |  |  |  |  |  |  |  |  |  |  |  |  |  |  | sdAb No. 25-B6 (VHH, Humanized sdAb No. 25; not shown: Fc part implied by anti-human IgG1 Fc detection) VHH: QLQLVESGGGLVKPGGSLRLSCAASGSIESFSFMGWYRQAPGKQREWVAGFTGAASLSFSTYTDAVKGRFTISRDNAKNSVYLQMNSLRAEDTAVYYCNVDPWSQSWPGRYWGQGTTVTVSS | OD450 at 0.122 nM [1]: 0.056; OD450 at 0.366 nM [1]: 0.07; OD450 at 1.097 nM [1]: 0.095; OD450 at 3.292 nM [1]: 0.166; OD450 at 9.877 nM [1]: 0.306; OD450 at 29.63 nM [1]: 0.399; OD450 at 88.89 nM [1]: 0.888; OD450 at 266.67 nM [1]: 1.47; OD450 at 0.061 nM [2]: 0.037; OD450 at 0.1829 nM [2]: 0.039; OD450 at 0.5487 nM [2]: 0.037; OD450 at 1.6461 nM [2]: 0.044; OD450 at 4.9383 nM [2]: 0.053; OD450 at 14.815 nM [2]: 0.069; OD450 at 44.445 nM [2]: 0.085; OD450 at 133.335 nM [2]: 0.128
8.49 | 9.36 | 3.55 | 6.06 | 14.7 | 20.3 | 38 | 33 | 34.5 | 35.1 | 14.2 | 26.9 | -9.9 | -7.8 | -12 | -24.2 | -20.1 | -209 | 205 | -16.6 | sdAb No. 20 (VHH, Fc of the tested form not described; also called sdAb 20; not shown: Fc part implied by anti-human Fc capture) VHH: QVQLVESGGGLVQPGGSLRLSCAASGLTLDGYAVGWFRQAPGKDREGLSCISGSDGSTHYLDSVKGRFTISRDNAKSTMALQMNSLQFGDTAIYYCAARRGSCSGSWTYWGQGTQVTVSS | RU [13]: -19.3 RU; RU [14]: -21.8 RU; RU [15]: 23.3 RU; Kd [16]: 0.252 nM; koff [16]: 0.000429 s⁻¹; kon [16]: 1.71e+06 M⁻¹ s⁻¹
8.4 | 8.77 | 6.07 | 14.2 | 14.8 | 30.7 | 46.4 | 45.7 | 54.4 | 51.3 | 15.7 | 41.4 | 22 | -6.9 | -10.7 | -14.8 | -114 | -10.6 | 30 | 4.9 | sdAb No. 1 (VHH, the tested form was captured by anti-human Fc, its Fc is not described; also called sdAb 1; not shown: Fc part implied by anti-human Fc capture) VHH: QLQLVESGGGLVQAGGSLRLSCAASGFTFDDYAIGWFRQAPGKEREGVSCIRSSDGSTYYADSVKGRFTISSDNAKNTVYLQMNSLKPEDTAVYYCAKDNYSDCRGPYHYWGQGTQVTVSS | RU [13]: -8.4 RU; RU [14]: -11.6 RU; RU [15]: 37.4 RU; koff [16]: 5.05e-08 s⁻¹; kon [16]: 4.77e+06 M⁻¹ s⁻¹
0.495 | 3.55 | 3.63 | 6.64 | 15.5 | 19.5 | 24.5 | 30.6 | 36.8 | 41 | 42.6 | 56.4 | -7.3 | -12.5 | -10.6 | -117 | -10.2 | -9.6 | 9.8 | -2.2 | sdAb No. 73 (VHH, Fc not described; also called sdAb 73; not shown: Fc part implied by anti-human Fc capture) VHH: QVQLVESGGGLVQPGGSLKLSCTASGFTLDYYAIAWFRQAPGKEREAVSCISSSDGSTRYADSVKGRFTISRDNAKNTVYLQMNSLKPEDTAVYYCAADPYGDCRGPYDYWGQGTQVTVSS | RU [13]: -6.9 RU; RU [14]: -9.7 RU; RU [15]: 27 RU; Kd [16]: 0.182 nM; koff [16]: 0.000975 s⁻¹; kon [16]: 5.35e+06 M⁻¹ s⁻¹
